Experimental data from publication PMC4204861.

Molecular target: rEag1-Δeag (rat)

rEag1 eag domain fragment (domain or fragment)
slow phase of inactivation of rEag1-Δeag (10- or 40-sec test pulses), two-electrode voltage clamp in Xenopus oocytes, co-expression (% reduction in current amplitude): 60
